Test results reported in patent US20060159654A1 (ROCKEFELLER UNIVERSITY, published 2006).

Tests used:
[1] = biological target: murine TRANCE receptor (TRANCE-R) on the cell surface (murine) (UniProt O35305); experiment: cell-based or functional assay
[2] = biological target: T1, murine TRANCE (mTRANCE) on the cell surface (murine, UniProt O35235 1-316); experiment: flow cytometry on transfected 293T cells and on activated murine T cells, TR-Fc at 5 mg/ml as printed, FITC anti-human Fc
T1 construct: also called RANK-L
T1 sequence: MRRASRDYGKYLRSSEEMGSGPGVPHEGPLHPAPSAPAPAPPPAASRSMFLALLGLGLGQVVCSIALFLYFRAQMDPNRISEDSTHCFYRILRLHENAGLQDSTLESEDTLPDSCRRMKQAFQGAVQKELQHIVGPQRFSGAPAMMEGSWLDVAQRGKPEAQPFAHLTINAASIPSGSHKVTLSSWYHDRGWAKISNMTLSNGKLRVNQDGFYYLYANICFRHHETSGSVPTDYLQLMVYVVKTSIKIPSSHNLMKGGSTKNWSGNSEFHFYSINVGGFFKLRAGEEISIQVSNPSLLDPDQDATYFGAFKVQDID
Method: Determination of the specificity of hCD8-TRANCE and TR-Fc.
Flow cytometry. The expression of TRANCE on activated CD4+ and CD8⁺ T-cells was assessed using the TR-Fc fusion protein at 5 mg/ml followed by FITC-conjugated goat anti-human IgG (Fc specific) F(ab′)₂ fragment (Jackson. Laboratories, West Grove, Pa.). The negative control consisted of normal hIgG1 (Sigma, St Louis, […].). T-cell and thymocyte subsets were sorted using a FACS “VANTAGE”, (Becton Dickinson, Mountain View, Calif.).

Molecule “FLAG-tagged soluble form of TRANCE (TRANCE-Ecto) (from UniProt O35235 72-316) (ligand)” has a JNK activation (fold induction over unstimulated), LNTC [1] of 2 fold, a JNK activation (fold induction over unstimulated), T cell hybridomas [1] of 2 fold and a JNK activation (fold induction over unstimulated), thymocytes [1] of 3 fold.

Work on “human CD8-TRANCE recombinant molecule (from UniProt P01732 22-182) (ligand)” yielded a JNK activity in thymocytes of control littermates [1] of 2.5 fold.

B1: TRANCE-R-Fc recombinant molecule (Fc fusion, murine, UniProt O35305 31-214, looked up)
chain: VTPPCTQERHYEHLGRCCSRCEPGKYLSSKCTPTSDSVCLPCGPDEYLDTWNEEDKCLLHKVCDAGKALVAVDPGNHTAPRRCACTAGYHWNSDCECCRRNTECAPGFGAQHPLQLNKDTVCTPCLLGFFSDVFSSTDKCKPWTNCTLLGKLEAHQGTTESDVVCSSSMTLRRPPKEAQAYLPS
notes: extracellular domain; Made in a baculovirus system and purified on protein A sepharose; also called TR-Fc; TR.R-Fc; not shown: Fc portion of human IgG1, fused to the C-terminal end of the receptor's extracellular domain
B1: binds [2].
